# Literature values, collected in article PMC11173308.
# Biological target: calmodulin (UniProt P0DP23)
substance,measurement,value
arrestin-2 (from UniProt P17870),Kd,7 µM
